Results published in patent publication US20150246959A1 (US Dept. of Health and Human Services, published 2015).

How the values were obtained:
Assay in all cases: cell-based or functional assay
[1] = target: MAGE-D2: 413-428 peptide presented by HLA-DP*0401 on 293-CIITA cells (human, UniProt P20036 29-260)
[2] = target: MAGE-A3: 243-258 peptide presented by HLA-DP*0401 on 293-CIITA cells (human, UniProt P20036 29-260)
[3] = target: MAGE-A3: 247-258 peptide presented by HLA-DP*0401 on 293-CIITA cells (human, UniProt P20036 29-260)
[4] = target: MAGE-A3: 243-255 peptide presented by HLA-DP*0401 on 293-CIITA cells (human, UniProt P20036 29-260)
[5] = target: MAGE-A3: 243-253 peptide presented by HLA-DP*0401 on 293-CIITA cells (human, UniProt P20036 29-260)
[6] = target: MAGE-L2: 582-597 peptide presented by HLA-DP*0401 on 293-CIITA cells (human, UniProt P20036 29-260)
[7] = target: MAGE-A3: 248-258 peptide presented by HLA-DP*0401 on 293-CIITA cells (human, UniProt P20036 29-260)
[8] = target: MAGE-A6: 248-258 peptide presented by HLA-DP*0401 on 293-CIITA cells (human, UniProt P20036 29-260)
[9] = target: MAGE-A3: 246-258 peptide presented by HLA-DP*0401 on 293-CIITA cells (human, UniProt P20036 29-260)
[10] = target: MAGE-D4: 300-315 peptide presented by HLA-DP*0401 on 293-CIITA cells (human, UniProt P20036 29-260)
[11] = target: MAGE-A4/A9: 249-259 peptide presented by HLA-DP*0401 on 293-CIITA cells (human, UniProt P20036 29-260)
[12] = target: MAGE-A1/B4: 241-251 peptide presented by HLA-DP*0401 on 293-CIITA cells (human, UniProt P20036 29-260)
[13] = target: MAGE-C1: 113-123 peptide presented by HLA-DP*0401 on 293-CIITA cells (human, UniProt P20036 29-260)
[14] = target: MAGE-A8: 251-261 peptide presented by HLA-DP*0401 on 293-CIITA cells (human, UniProt P20036 29-260)
[15] = target: MAGE-A3: 243-254 peptide presented by HLA-DP*0401 on 293-CIITA cells (human, UniProt P20036 29-260)
[16] = target: MAGE-A3: 249-258 peptide presented by HLA-DP*0401 on 293-CIITA cells (human, UniProt P20036 29-260)
[17] = target: MAGE-A3: 245-258 peptide presented by HLA-DP*0401 on 293-CIITA cells (human, UniProt P20036 29-260)
[18] = target: MAGE-G1: 220-235 peptide presented by HLA-DP*0401 on 293-CIITA cells (human, UniProt P20036 29-260)
[19] = target: MAGE-B10: 250-260 peptide presented by HLA-DP*0401 on 293-CIITA cells (human, UniProt P20036 29-260)
[20] = target: MAGE-A3: 243-256 peptide presented by HLA-DP*0401 on 293-CIITA cells (human, UniProt P20036 29-260)
[21] = target: MAGE-A2/A12: 248-258 peptide presented by HLA-DP*0401 on 293-CIITA cells (human, UniProt P20036 29-260)
[22] = target: Necdin: 237-247 peptide presented by HLA-DP*0401 on 293-CIITA cells (human, UniProt P20036 29-260)
[23] = target: MAGE-B16: 252-262 peptide presented by HLA-DP*0401 on 293-CIITA cells (human, UniProt P20036 29-260)
[24] = target: MAGE-B2: 250-260 peptide presented by HLA-DP*0401 on 293-CIITA cells (human, UniProt P20036 29-260)

B1: 6F9mC TCR (TCR)
TCR alpha: QTVTQSQPEMSVQEAETVTLSCTYDTSESDYYLFWYKQPPSRQMILVIRQEAYKQQNATENRFSVNFQKAAKSFSLKISDSQLGDAAMYFCALRSSGTYKYIFGTGTRLKVLANIQNPEPAVYQLKDPRSQDSTLCLFTDFDSQINVPKTMESGTFITDKTVLDMKAMDSKSNGAIAWSNQTSFTCQDIFKETNATYPSSDVPCDATLTEKSFETDMNLNFQNLSVMGLRILLLKVAGFNLLMTLRLWSS
TCR beta: GAGVSQSPSNKVTEKGKDVELRCDPISGHTALYWYRQSLGQGLEFLIYFQGNSAPDKSGLPSDRFSAERTGGSVSTLTIQRTQQEDSAVYLCASIRTGPFFSGNTIYFGEGSWLTVVEDLRNVTPPKVSLFEPSKAEIANKQKATLVCLARGFFPDHVELSWWVNGKEVHSGVSTDPQAYKESNYSYCLSSRLRVSATFWHNPRNHFRCQVQFHGLSEEDKWPEGSPKPVTQNISAEAWGRADCGITSASYHQGVLSATILYEILLGKATLYAVLVSGLVLMAMVKRKNS
B1 was tested. Which “IFN-g (pg/ml); CD4+ T cells of PBMC-1; 293-CIITA pulsed with peptide” value [1] did it give?
Its value is 43 pg/mL.

What about the “IFN-g (pg/ml); CD4+ T cells of PBMC-2; 293-CIITA pulsed with peptide” value [1] of the same binder?
Its value is 223 pg/mL.

And the “IFN-g (pg/ml); CD4+ T cells of PBMC-1; 293-CIITA pulsed with peptide” value [2]?
Its value is 15200 pg/mL.

And the “IFN-g (pg/ml); CD4+ T cells of PBMC-2; 293-CIITA pulsed with peptide” value [2]?
Its value is 17500 pg/mL.

And the “IFN-g (pg/ml); CD4+ T cells of PBMC-1; 293-CIITA pulsed with peptide” value [3]?
Its value is 10600 pg/mL.

What about the “IFN-g (pg/ml); CD4+ T cells of PBMC-2; 293-CIITA pulsed with peptide” value [3] of the same binder?
The value was 13300 pg/mL.

And the “IFN-g (pg/ml); CD4+ T cells of PBMC-1; 293-CIITA pulsed with peptide” value [4]?
Its value is 137 pg/mL.

And the “IFN-g (pg/ml); CD4+ T cells of PBMC-2; 293-CIITA pulsed with peptide” value [4]?
Its value is 117 pg/mL.

And the “IFN-g (pg/ml); CD4+ T cells of PBMC-1; 293-CIITA pulsed with peptide” value [5]?
Its value is 40 pg/mL.

And the “IFN-g (pg/ml); CD4+ T cells of PBMC-2; 293-CIITA pulsed with peptide” value [5]?
Its value is 45 pg/mL.

And the “IFN-g (pg/ml); CD4+ T cells of PBMC-1; 293-CIITA pulsed with peptide” value [6]?
Its value is 56 pg/mL.

What about the “IFN-g (pg/ml); CD4+ T cells of PBMC-2; 293-CIITA pulsed with peptide” value [6] of the same binder?
Its value is 107 pg/mL.

What about the “IFN-g (pg/ml); CD4+ T cells of PBMC-1; 293-CIITA pulsed with peptide” value [7] of the same binder?
The value was 9000 pg/mL.

And the “IFN-g (pg/ml); CD4+ T cells of PBMC-2; 293-CIITA pulsed with peptide” value [7]?
Its value is 8700 pg/mL.

What about the “IFN-g (pg/ml); CD4+ T cells of PBMC-1; 293-CIITA pulsed with peptide” value [8] of the same binder?
The value was 11800 pg/mL.

What about the “IFN-g (pg/ml); CD4+ T cells of PBMC-2; 293-CIITA pulsed with peptide” value [8] of the same binder?
Its value is 8370 pg/mL.

What about the “IFN-g (pg/ml); CD4+ T cells of PBMC-1; 293-CIITA pulsed with peptide” value [9] of the same binder?
Its value is 12700 pg/mL.

What about the “IFN-g (pg/ml); CD4+ T cells of PBMC-2; 293-CIITA pulsed with peptide” value [9] of the same binder?
Its value is 16200 pg/mL.

What about the “IFN-g (pg/ml); CD4+ T cells of PBMC-1; 293-CIITA pulsed with peptide” value [10] of the same binder?
The value was 234 pg/mL.

What about the “IFN-g (pg/ml); CD4+ T cells of PBMC-2; 293-CIITA pulsed with peptide” value [10] of the same binder?
Its value is 268 pg/mL.

What about the “IFN-g (pg/ml); CD4+ T cells of PBMC-1; 293-CIITA pulsed with peptide” value [11] of the same binder?
Its value is 23 pg/mL.

And the “IFN-g (pg/ml); CD4+ T cells of PBMC-2; 293-CIITA pulsed with peptide” value [11]?
Its value is 26 pg/mL.

What about the “IFN-g (pg/ml); CD4+ T cells of PBMC-1; 293-CIITA pulsed with peptide” value [12] of the same binder?
The value was 126 pg/mL.

And the “IFN-g (pg/ml); CD4+ T cells of PBMC-2; 293-CIITA pulsed with peptide” value [12]?
The value was 84 pg/mL.

What about the “IFN-g (pg/ml); CD4+ T cells of PBMC-1; 293-CIITA pulsed with peptide” value [13] of the same binder?
Its value is 0 pg/mL.

What about the “IFN-g (pg/ml); CD4+ T cells of PBMC-2; 293-CIITA pulsed with peptide” value [13] of the same binder?
The value was 27 pg/mL.

What about the “IFN-g (pg/ml); CD4+ T cells of PBMC-1; 293-CIITA pulsed with peptide” value [14] of the same binder?
Its value is 58 pg/mL.

And the “IFN-g (pg/ml); CD4+ T cells of PBMC-2; 293-CIITA pulsed with peptide” value [14]?
Its value is 41 pg/mL.

What about the “IFN-g (pg/ml); CD4+ T cells of PBMC-1; 293-CIITA pulsed with peptide” value [15] of the same binder?
The value was 0 pg/mL.

And the “IFN-g (pg/ml); CD4+ T cells of PBMC-2; 293-CIITA pulsed with peptide” value [15]?
Its value is 39 pg/mL.

What about the “IFN-g (pg/ml); CD4+ T cells of PBMC-1; 293-CIITA pulsed with peptide” value [16] of the same binder?
Its value is 1640 pg/mL.

What about the “IFN-g (pg/ml); CD4+ T cells of PBMC-2; 293-CIITA pulsed with peptide” value [16] of the same binder?
Its value is 2030 pg/mL.

What about the “IFN-g (pg/ml); CD4+ T cells of PBMC-1; 293-CIITA pulsed with peptide” value [17] of the same binder?
Its value is 15000 pg/mL.

And the “IFN-g (pg/ml); CD4+ T cells of PBMC-2; 293-CIITA pulsed with peptide” value [17]?
The value was 17800 pg/mL.

What about the “IFN-g (pg/ml); CD4+ T cells of PBMC-1; 293-CIITA pulsed with peptide” value [18] of the same binder?
The value was 29 pg/mL.

What about the “IFN-g (pg/ml); CD4+ T cells of PBMC-2; 293-CIITA pulsed with peptide” value [18] of the same binder?
Its value is 33 pg/mL.

What about the “IFN-g (pg/ml); CD4+ T cells of PBMC-1; 293-CIITA pulsed with peptide” value [19] of the same binder?
Its value is 18 pg/mL.

And the “IFN-g (pg/ml); CD4+ T cells of PBMC-2; 293-CIITA pulsed with peptide” value [19]?
Its value is 34 pg/mL.

What about the “IFN-g (pg/ml); CD4+ T cells of PBMC-1; 293-CIITA pulsed with peptide” value [20] of the same binder?
The value was 1820 pg/mL.

What about the “IFN-g (pg/ml); CD4+ T cells of PBMC-2; 293-CIITA pulsed with peptide” value [20] of the same binder?
Its value is 2490 pg/mL.

What about the “IFN-g (pg/ml); CD4+ T cells of PBMC-1; 293-CIITA pulsed with peptide” value [21] of the same binder?
The value was 66 pg/mL.

What about the “IFN-g (pg/ml); CD4+ T cells of PBMC-2; 293-CIITA pulsed with peptide” value [21] of the same binder?
Its value is 56 pg/mL.

What about the “IFN-g (pg/ml); CD4+ T cells of PBMC-1; 293-CIITA pulsed with peptide” value [22] of the same binder?
The value was 22 pg/mL.

And the “IFN-g (pg/ml); CD4+ T cells of PBMC-2; 293-CIITA pulsed with peptide” value [22]?
Its value is 32 pg/mL.

What about the “IFN-g (pg/ml); CD4+ T cells of PBMC-1; 293-CIITA pulsed with peptide” value [23] of the same binder?
Its value is 27 pg/mL.

What about the “IFN-g (pg/ml); CD4+ T cells of PBMC-2; 293-CIITA pulsed with peptide” value [23] of the same binder?
The value was 28 pg/mL.

What about the “IFN-g (pg/ml); CD4+ T cells of PBMC-1; 293-CIITA pulsed with peptide” value [24] of the same binder?
The value was 0 pg/mL.

And the “IFN-g (pg/ml); CD4+ T cells of PBMC-2; 293-CIITA pulsed with peptide” value [24]?
Its value is 20 pg/mL.
